The values that follow come from patent US20060015959.

For the data set, the target named is recombinant Tau (Panvera).

B1: full length human transglutaminase II (protein)
chain: MAEELVLERCDLELETNGRDHHTADLCREKLVVRRGQPFWLTLHFEGRNYEASVDSLTFSVVTGPAPSQEAGTKARFPLRDAVEEGDWTATVVDQQDCTLSLQLTTPANAPIGLYRLSLEASTGYQGSSFVLGHFILLFNAWCPADAVYLDSEEERQEYVLTQQGFIYQGSAKFIKNIPWNFGQFEDGILDICLILLDVNPKFLKNAGRDCSRRSSPVYVGRVVSGMVNCNDDQGVLLGRWDNNYGDGVSPMSWIGSVDILRRWKNHGCQRVKYGQCWVFAAVACTVLRCLGIPTRVVTNYNSAHDQNSNLLIEYFRNEFGEIQGDKSEMIWNFHCWVESWMTRPDLQPGYEGWQALDPTPQEKSEGTYCCGPVPVRAIKEGDLSTKYDAPFVFAEVNADVVDWIQQDDGSVHKSINRSLIVGLKISTKSVGRDEREDITHTYKYPEGSSEEREAFTRANHLNKLAEKEETGMAMRIRVGQSMNMGSDFDVFAHITNNTAEEYVCRLLLCARTVSYNGILGPECGTKYLLNLNLEPFSEKSVPLCILYEKYRDCLTESNLIKVRALLVEPVINSYLLAERDLYLENPEIKIRILGEPKQKRKLVAEVSLQNPLPVALEGCTFTVEGAGLTEEQKTVEIPDPVEAGEEVKVRMDLLPLHMGLHKLVVNFESDKLKAVKGFRNVIIGPA
On to B1, for which the “tau aggregation (high molecular weight total tau immunoreactive protein complex on western blot) in the transglutaminase activity assay” value was “increased, Ca2+-dependent tau aggregation when recombinant tau was added to brain lysate from mice with overexpression of hTGII”.
